Source: PMC6131487

Legend:
[1] = target: UL25 of HSV-2 (component of the capsid-vertex-specific component, CVSC) (herpes simplex virus 2 strain MS) (UniProt P89448); assay: cryo-EM structure; HSV-2 (MS strain) C-capsids assembled in infected Vero cells, detergent-treated (1% NP-40) and purified on sucrose gradients, in PBS; icosahedral plus block-based reconstruction, 3.75 Å overall (CVSC map 4.3 Å, CVSC head about 10 Å)
[2] = target: small capsid protein VP26 of HSV-2 (herpes simplex virus 2 strain MS) (UniProt P89458); assay: as above

| Substance | stoichiometry N [1] | stoichiometry N [2] |
| --- | --- | --- |
| UL25 of HSV-2 (component of the capsid-vertex-specific component, CVSC) (from UniProt P89448 1-585) (natural protein) | 2 |  |
| small capsid protein VP26 of HSV-2 (from UniProt P89458 1-112) (natural protein) |  | 6 |
